Assays:
[1] = molecular target: GVL peptide-HLA-A2 complex (human); experiment: cell-based or functional assay
[2] = molecular target: GVL peptide-HLA-A2 complex (human); experiment: flow cytometry, T2 cells pulsed with 50 to 0.1 µg/ml GVL peptide

BB7.2 mAb (antibody)
CDC of T2 cells pulsed with 50 to 0.1 µg/ml GVL peptide, antibody 10 µg/ml [1]: 53 to 70%
MFI [2]: 250 to 350 MFI

Source: US20090226474A1, “Antibodies as T cell receptor mimics, methods of production and uses thereof” (priority 2004, published 2009)
